Measured values taken from patent US20070134663.

Assays:
[1] = biological target: FLAG-Luc [luciferase: P08659]
MSN-V5-His, P26038 = biological target: T1, MSN-V5-His, P26038
T1 chain: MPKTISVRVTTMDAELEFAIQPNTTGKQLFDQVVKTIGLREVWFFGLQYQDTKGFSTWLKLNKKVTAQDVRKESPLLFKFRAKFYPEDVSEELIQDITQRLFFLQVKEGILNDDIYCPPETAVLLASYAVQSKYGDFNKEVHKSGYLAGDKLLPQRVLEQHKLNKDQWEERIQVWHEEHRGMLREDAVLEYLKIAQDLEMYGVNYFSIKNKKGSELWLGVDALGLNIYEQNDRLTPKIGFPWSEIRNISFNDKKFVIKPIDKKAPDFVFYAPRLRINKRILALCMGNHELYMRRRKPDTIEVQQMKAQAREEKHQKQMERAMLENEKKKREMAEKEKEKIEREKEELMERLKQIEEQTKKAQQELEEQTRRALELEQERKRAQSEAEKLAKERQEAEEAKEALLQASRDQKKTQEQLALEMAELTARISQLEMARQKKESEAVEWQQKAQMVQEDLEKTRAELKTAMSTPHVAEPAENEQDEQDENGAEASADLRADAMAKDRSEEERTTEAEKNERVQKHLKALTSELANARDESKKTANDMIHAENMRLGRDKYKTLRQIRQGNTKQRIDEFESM

Sequence of FLAG-Luc [luciferase: P08659] (P08659 whole entry): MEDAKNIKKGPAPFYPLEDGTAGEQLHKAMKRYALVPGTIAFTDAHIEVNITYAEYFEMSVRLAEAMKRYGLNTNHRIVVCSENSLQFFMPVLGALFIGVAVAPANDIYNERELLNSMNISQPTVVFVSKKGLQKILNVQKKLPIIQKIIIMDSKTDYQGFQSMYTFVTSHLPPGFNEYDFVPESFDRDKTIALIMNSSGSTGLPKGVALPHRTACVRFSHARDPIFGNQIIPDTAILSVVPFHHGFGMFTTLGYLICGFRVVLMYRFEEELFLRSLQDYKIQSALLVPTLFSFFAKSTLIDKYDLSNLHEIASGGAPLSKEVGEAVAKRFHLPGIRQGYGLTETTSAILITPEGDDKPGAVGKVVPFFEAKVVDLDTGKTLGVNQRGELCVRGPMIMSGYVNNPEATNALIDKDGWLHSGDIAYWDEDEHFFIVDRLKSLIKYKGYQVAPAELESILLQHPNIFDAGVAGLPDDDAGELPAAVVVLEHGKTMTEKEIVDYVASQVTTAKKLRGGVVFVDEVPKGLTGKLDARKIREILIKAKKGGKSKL
Sequence of FLAG-KPNA1, P52294 (P52294 whole entry): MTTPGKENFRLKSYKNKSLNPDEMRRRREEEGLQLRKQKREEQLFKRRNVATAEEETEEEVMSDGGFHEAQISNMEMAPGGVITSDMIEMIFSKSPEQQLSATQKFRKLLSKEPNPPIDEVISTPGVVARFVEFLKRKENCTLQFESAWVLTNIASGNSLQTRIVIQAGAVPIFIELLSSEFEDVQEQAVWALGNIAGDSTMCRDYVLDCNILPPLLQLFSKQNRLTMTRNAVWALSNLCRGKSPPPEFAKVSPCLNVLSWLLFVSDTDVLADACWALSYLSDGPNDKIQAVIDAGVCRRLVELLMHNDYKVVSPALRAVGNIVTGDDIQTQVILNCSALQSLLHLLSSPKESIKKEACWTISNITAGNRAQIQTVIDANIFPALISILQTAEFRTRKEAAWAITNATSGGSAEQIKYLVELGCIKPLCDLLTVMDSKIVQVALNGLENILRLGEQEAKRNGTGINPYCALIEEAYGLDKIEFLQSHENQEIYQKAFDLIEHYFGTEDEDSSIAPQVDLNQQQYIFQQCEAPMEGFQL

B1: purified PKC theta (Upstate) (protein)
chain: MSPFLRIGLSNFDCGSCQSCQGEAVNPYCAVLVKEYVESENGQMYIQKKPTMYPPWDSTFDAHINKGRVMQIIVKGKNVDLISETTVELYSLAERCRKNNGKTEIWLELKPQGRMLMNARYFLEMSDTKDMNEFETEGFFALHQRRGAIKQAKVHHVKCHEFTATFFPQPTFCSVCHEFVWGLNKQGYQCRQCNAAIHKKCIDKVIAKCTGSAINSRETMFHKERFKIDMPHRFKVYNYKSPTFCEHCGTLLWGLARQGLKCDACGMNVHHRCQTKVANLCGINQKLMAEALAMIESTQQARCLRDTEQIFREGPVEIGLPCSIKNEARPPCLPTPGKREPQGISWESPLDEVDKMCHLPEPELNKERPSLQIKLKIEDFILHKMLGKGSFGKVFLAEFKKTNQFFAIKALKKDVVLMDDDVECTMVEKRVLSLAWEHPFLTHMFCTFQTKENLFFVMEYLNGGDLMYHIQSCHKFDLSRATFYAAEIILGLQFLHSKGIVYRDLKLDNILLDKDGHIKIADFGMCKENMLGDAKTNTFCGTPDYIAPEILLGQKYNHSVDWWSFGVLLYEMLIGQSPFHGQDEEELFHSIRMDNPFYPRWLEKEAKDLLVKLFVREPEKRLGVRGDIRQHPLFREINWEELERKEIDPPFRPKVKSPFDCSNFDKEFLNEKPRLSFADRALINSMDQNMFRNFSFMNPGMERLIS
phosphorylation of substrate, in vitro kinase assay with gamma-32P-ATP, SDS-PAGE and autoradiography (FLAG-KPNA1, P52294): phosphorylated band of KPNA1 (molecular weight of about 63 kDa) was observed
phosphorylation of substrate, in vitro kinase assay with gamma-32P-ATP, SDS-PAGE and autoradiography [1]: the negative control Luc does not contain phosphorylated band (molecular weight of about 62 kDa)
phosphorylation of substrate, in vitro kinase assay with gamma-32P-ATP, SDS-PAGE and autoradiography (MSN-V5-His, P26038): the positive control MSN contains phosphorylated band (molecular weight of about 71 kDa)
